Laboratory results published in paper doi:10.1101/2025.03.12.642038, “Structural, biophysical and biological analysis and characterisation of IRF4 DNA-binding domain mutations associated with multiple myeloma”.

Experiments:
Experiment in all cases: SPR two-state kinetic; FP: PBS + 0.05% Tween20, 5 nM DNA, 1 h, room temperature; SPR: Biacore S200, SA chip, protein 0.1-4500 nM, running buffer not given in material; errors are SD
[1] = biological target: T1, IRF4 DBD D106Y (Homo sapiens, UniProt Q15306 20-132, D106Y); conditions: protein: recombinant; tags: N-terminal His8-linker-His8-TEV, cleaved; label: 3' biotin; hairpin, TTTT loop
T1 sequence: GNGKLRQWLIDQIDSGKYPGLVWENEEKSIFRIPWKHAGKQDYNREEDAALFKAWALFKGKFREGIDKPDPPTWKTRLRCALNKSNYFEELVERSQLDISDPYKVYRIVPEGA

[2] = biological target: T2, IRF4 DBD T95A (Homo sapiens, UniProt Q15306 20-132, T95A); conditions: protein: recombinant; tags: N-terminal His8-linker-His8-TEV, cleaved; label: 3' biotin; hairpin, TTTT loop
T2 sequence: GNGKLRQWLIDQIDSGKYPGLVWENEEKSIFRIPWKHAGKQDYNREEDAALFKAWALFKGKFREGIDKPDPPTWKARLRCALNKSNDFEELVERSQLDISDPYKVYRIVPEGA

[3] = biological target: T3, IRF4 DBD C99R (Homo sapiens, UniProt Q15306 20-132, C99R); conditions: protein: recombinant; tags: N-terminal His8-linker-His8-TEV, cleaved; label: 3' biotin; hairpin, TTTT loop
T3 sequence: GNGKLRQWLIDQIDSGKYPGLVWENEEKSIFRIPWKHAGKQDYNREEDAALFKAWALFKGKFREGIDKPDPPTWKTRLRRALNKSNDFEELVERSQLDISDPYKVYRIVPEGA

[4] = biological target: T4, IRF4 DBD C99S (Homo sapiens, UniProt Q15306 20-132, C99S); conditions: protein: recombinant; label: 3' biotin; hairpin, TTTT loop
T4 sequence: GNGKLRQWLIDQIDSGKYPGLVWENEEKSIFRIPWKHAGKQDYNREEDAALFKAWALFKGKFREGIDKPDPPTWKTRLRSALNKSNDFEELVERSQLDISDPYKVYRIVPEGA

[5] = biological target: T5, IRF4 DBD wild-type (Homo sapiens, UniProt Q15306 20-132); conditions: protein: recombinant; tags: N-terminal His8-linker-His8-TEV, cleaved; label: 3' biotin; hairpin, TTTT loop
T5 sequence: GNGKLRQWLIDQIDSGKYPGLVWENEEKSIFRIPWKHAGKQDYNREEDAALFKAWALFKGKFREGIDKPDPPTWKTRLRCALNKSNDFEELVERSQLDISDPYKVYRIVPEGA

[6] = biological target: T6, IRF4 DBD S114R (Homo sapiens, UniProt Q15306 20-132, S114R); conditions: protein: recombinant; tags: N-terminal His8-linker-His8-TEV, cleaved; label: 3' biotin; hairpin, TTTT loop
T6 sequence: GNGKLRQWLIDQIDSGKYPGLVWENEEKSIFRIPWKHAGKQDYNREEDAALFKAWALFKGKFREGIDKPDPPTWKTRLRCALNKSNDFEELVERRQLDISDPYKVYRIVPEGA

[7] = biological target: T7, IRF4 DBD K59N (Homo sapiens, UniProt Q15306 20-132, K59N); conditions: protein: recombinant; tags: N-terminal His8-linker-His8-TEV, cleaved; label: 3' biotin; hairpin, TTTT loop
T7 sequence: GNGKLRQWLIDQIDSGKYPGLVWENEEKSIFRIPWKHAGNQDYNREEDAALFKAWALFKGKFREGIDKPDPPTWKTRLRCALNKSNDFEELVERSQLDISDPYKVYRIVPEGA

[8] = biological target: T8, IRF4 DBD K123R (Homo sapiens, UniProt Q15306 20-132, K123R); conditions: protein: recombinant; tags: N-terminal His8-linker-His8-TEV, cleaved; label: 3' biotin; hairpin, TTTT loop
T8 sequence: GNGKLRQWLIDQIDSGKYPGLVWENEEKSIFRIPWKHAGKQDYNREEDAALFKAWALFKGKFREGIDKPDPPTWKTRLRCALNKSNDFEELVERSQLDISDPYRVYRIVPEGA

[9] = biological target: T9, IRF4 DBD S114N (Homo sapiens, UniProt Q15306 20-132, S114N); conditions: protein: recombinant; tags: N-terminal His8-linker-His8-TEV, cleaved; label: 3' biotin; hairpin, TTTT loop
T9 sequence: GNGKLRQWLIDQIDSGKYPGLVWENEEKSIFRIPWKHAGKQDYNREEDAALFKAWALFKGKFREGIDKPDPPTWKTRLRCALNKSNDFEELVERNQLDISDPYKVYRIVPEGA

[10] = biological target: T10, IRF4 DBD T95K (Homo sapiens, UniProt Q15306 20-132, T95K); conditions: protein: recombinant; tags: N-terminal His8-linker-His8-TEV, cleaved; label: 3' biotin; hairpin, TTTT loop
T10 sequence: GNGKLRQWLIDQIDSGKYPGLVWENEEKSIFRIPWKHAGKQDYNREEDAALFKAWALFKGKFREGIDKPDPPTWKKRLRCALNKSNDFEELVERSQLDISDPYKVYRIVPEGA

For CTTGGTTTCACTTCCTGCGTTTTCGCAGGAAGTGAAACCAAG (structured_DNA) [IRE hairpin (biotin)], which Kd [1] is on record?
The Kd was 135 ± 121 nM.

And the Kd [2]?
Its Kd is 305 ± 174 nM.

What about the Kd [3] of the same binder?
Its Kd is 660 ± 317 nM.

And the Kd [4]?
The Kd was 139 ± 43 nM.

What about the Kd [5] of the same binder?
The Kd was 187 ± 143 nM.

What about the Kd [6] of the same binder?
The Kd was 49 ± 26 nM.

What about the Kd [7] of the same binder?
Its Kd is 107 ± 133 nM.

And the Kd [8]?
Its Kd is 1110 ± 341 nM.

And the Kd [9]?
The Kd was 145 ± 151 nM.

What about the Kd [10] of the same binder?
Its Kd is 913 ± 147 nM.
